Assay results as given in US7115410.

Experiments:
[1] = biological target: MBP-C125 (maltose-binding protein fused to the last 125 amino acids of APP), P05067
[2] = biological target: MBP-C125sw (maltose-binding protein fused to the last 125 amino acids of APP, Swedish double mutation) [MBP: P0AEX9]
[3] = biological target: T1, P26-P4′sw substrate ((biotin)CGGADRGLTTRPGSGLTNIKTEEISEVNLDAEF) (not fully specified)
T1 chain: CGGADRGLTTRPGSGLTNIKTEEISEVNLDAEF

[4] = biological target: APP 751 wild type (expressed from pohCK751), P05067
[5] = biological target: APP 751 with the Swedish mutation (APPsw), P05067
APP 751 with the Swedish mutation (APPsw), P05067, sequence (P05067 whole entry, looked up, change not shown): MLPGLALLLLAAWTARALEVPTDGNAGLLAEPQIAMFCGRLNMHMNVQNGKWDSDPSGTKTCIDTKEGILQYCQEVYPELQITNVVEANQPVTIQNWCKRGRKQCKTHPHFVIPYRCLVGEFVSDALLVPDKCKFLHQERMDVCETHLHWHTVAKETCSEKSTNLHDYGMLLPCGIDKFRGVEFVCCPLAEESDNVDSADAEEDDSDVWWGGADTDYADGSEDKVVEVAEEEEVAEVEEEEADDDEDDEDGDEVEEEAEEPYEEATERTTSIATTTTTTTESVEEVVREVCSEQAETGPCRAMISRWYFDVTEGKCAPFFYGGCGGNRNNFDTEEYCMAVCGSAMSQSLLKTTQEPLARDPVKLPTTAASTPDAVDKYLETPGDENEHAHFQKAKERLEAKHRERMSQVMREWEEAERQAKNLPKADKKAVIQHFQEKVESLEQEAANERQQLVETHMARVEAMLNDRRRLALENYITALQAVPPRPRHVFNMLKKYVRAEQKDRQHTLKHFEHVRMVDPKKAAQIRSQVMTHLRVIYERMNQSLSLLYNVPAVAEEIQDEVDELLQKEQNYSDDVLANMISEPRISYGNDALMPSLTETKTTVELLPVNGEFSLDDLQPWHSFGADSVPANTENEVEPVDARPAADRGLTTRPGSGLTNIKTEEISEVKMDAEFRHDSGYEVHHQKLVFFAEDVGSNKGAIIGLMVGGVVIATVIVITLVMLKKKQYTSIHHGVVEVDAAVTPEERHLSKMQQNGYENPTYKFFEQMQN

MBP-C125 (maltose-binding protein fused to the last 125 amino acids of APP), P05067, sequence (P05067 whole entry, looked up, the tested form may be a part): as the sequence (P05067 whole entry, looked up, change not shown) above
APP 751 wild type (expressed from pohCK751), P05067, sequence (P05067 whole entry, looked up): as the sequence (P05067 whole entry, looked up, change not shown) above

B1: 452stop (recombinant β-secretase extending from position 1 to 452) (protein)
chain: TQHGIRLPLRSGLGGAPLGLRLPRETDEEPEEPGRRGSFVEMVDNLRGKSGQGYYVEMTVGSPPQTLNILVDTGSSNFAVGAAPHPFLHRYYQRQLSSTYRDLRKGVYVPYTQGKWEGELGTDLVSIPHGPNVTVRANIAAITESDKFFINGSNWEGILGLAYAEIARPDDSLEPFFDSLVKQTHVPNLFSLQLCGAGFPLNQSEVLASVGGSMIIGGIDHSLYTGSLWYTPIRREWYYEVIIVRVEINGQDLKMDCKEYNYDKSIVDSGTTNLRLPKKVFEAAVKSIKAASSTEKFPDGFWLGEQLVCWQAGTTPWNIFPVISLYLMGEVTNQSFRITILPQQYLRPVEDVATSQDDCYKFAISQSSTGTVMGAVIMEGFYVVFDRARKRIGFAVSACHVHDEFRTAAVEGPFVTLDMEDCGYNIPQTDEDYKDDDDK
With B1 the cleavage of substrate [1] was “Both enzymes exhibited activity in cleaving β-secretase substrates such as MBP-C125”, the cleavage of substrate [2] was “exhibited activity in cleaving the MBP-C125sw substrate” and the cleavage of substrate [3] was “exhibited activity in cleaving the MBP-C125sw substrate as well as the P26-P4′ substrate”.

B2: full length β-secretase (clone 27; 1-501) (protein)
chain: TQHGIRLPLRSGLGGAPLGLRLPRETDEEPEEPGRRGSFVEMVDNLRGKSGQGYYVEMTVGSPPQTLNILVDTGSSNFAVGAAPHPFLHRYYQRQLSSTYRDLRKGVYVPYTQGKWEGELGTDLVSIPHGPNVTVRANIAAITESDKFFINGSNWEGILGLAYAEIARPDDSLEPFFDSLVKQTHVPNLFSLQLCGAGFPLNQSEVLASVGGSMIIGGIDHSLYTGSLWYTPIRREWYYEVIIVRVEINGQDLKMDCKEYNYDKSIVDSGTTNLRLPKKVFEAAVKSIKAASSTEKFPDGFWLGEQLVCWQAGTTPWNIFPVISLYLMGEVTNQSFRITILPQQYLRPVEDVATSQDDCYKFAISQSSTGTVMGAVIMEGFYVVFDRARKRIGFAVSACHVHDEFRTAAVEGPFVTLDMEDCGYNIPQTDESTLMTIAYVMAAICALFMLPLCLMVCQWRCLRCLRQQHDDFADDISLLK
In the case of B2, the “Aβ(x-40) production (ELISA of conditioned media)” value [4] is reported as “approximately 8-fold increase in Aβ(x-40) production” and the “Aβ(x-40) production (ELISA of conditioned media)” value [5] is reported as “approximate 2-fold increase in Aβ(x-40)”.

B3: β-secretase purified from human brain (naturally occurring) (protein)
chain: ETDEEPEEPGRRGSFVEMVDNLRGKSGQGYYVEMTVGSPPQTLNILVDTGSSNFAVGAAPHPFLHRYYQRQLSSTYRDLRKGVYVPYTQGKWEGELGTDLVSIPHGPNVTVRANIAAITESDKFFINGSNWEGILGLAYAEIARPDDSLEPFFDSLVKQTHVPNLFSLQLCGAGFPLNQSEVLASVGGSMIIGGIDHSLYTGSLWYTPIRREWYYEVIIVRVEINGQDLKMDCKEYNYDKSIVDSGTTNLRLPKKVFEAAVKSIKAASSTEKFPDGFWLGEQLVCWQAGTTPWNIFPVISLYLMGEVTNQSFRITILPQQYLRPVEDVATSQDDCYKFAISQSSTGTVMGAVIMEGFYVVFDRARKRIGFAVSACHVHDEFRTAAVEGPFVTLDMEDCGYNIPQTDESTLMTIAYVMAAICALFMLPLCLMVCQWRCLRCLRQQHDDFADDISLLK
B3 showed a Specific Activity (MBP-C125sw assay), Affinity Eluate (nM/h/µg prot.) [2] of 258000 and a Specific Activity (MBP-C125sw assay), Anion Exchange Pool (nM/h/µg prot.) [2] of 1.49e+06.

B4: FLp501 (full length recombinant β-secretase having a C-terminal flag sequence) (protein)
chain: TQHGIRLPLRSGLGGAPLGLRLPRETDEEPEEPGRRGSFVEMVDNLRGKSGQGYYVEMTVGSPPQTLNILVDTGSSNFAVGAAPHPFLHRYYQRQLSSTYRDLRKGVYVPYTQGKWEGELGTDLVSIPHGPNVTVRANIAAITESDKFFINGSNWEGILGLAYAEIARPDDSLEPFFDSLVKQTHVPNLFSLQLCGAGFPLNQSEVLASVGGSMIIGGIDHSLYTGSLWYTPIRREWYYEVIIVRVEINGQDLKMDCKEYNYDKSIVDSGTTNLRLPKKVFEAAVKSIKAASSTEKFPDGFWLGEQLVCWQAGTTPWNIFPVISLYLMGEVTNQSFRITILPQQYLRPVEDVATSQDDCYKFAISQSSTGTVMGAVIMEGFYVVFDRARKRIGFAVSACHVHDEFRTAAVEGPFVTLDMEDCGYNIPQTDESTLMTIAYVMAAICALFMLPLCLMVCQWRCLRCLRQQHDDFADDISLLKDYKDDDDK
In the case of B4, the cleavage of substrate [1] is reported as “Both enzymes exhibited activity in cleaving β-secretase substrates such as MBP-C125”.
